Patent EP1169642B1 (THE GOVERNMENT OF THE UNITED STATES OF AMERICA, as …, dated 2006)

Target: T1, purified human complement Factor H (human, UniProt P08603 19-1231)
T1 construct: also called fH
Assay: steady state tryptophan fluorescence titration of Factor H with BSP

T1 sequence (P08603 19-1231 limits assumed): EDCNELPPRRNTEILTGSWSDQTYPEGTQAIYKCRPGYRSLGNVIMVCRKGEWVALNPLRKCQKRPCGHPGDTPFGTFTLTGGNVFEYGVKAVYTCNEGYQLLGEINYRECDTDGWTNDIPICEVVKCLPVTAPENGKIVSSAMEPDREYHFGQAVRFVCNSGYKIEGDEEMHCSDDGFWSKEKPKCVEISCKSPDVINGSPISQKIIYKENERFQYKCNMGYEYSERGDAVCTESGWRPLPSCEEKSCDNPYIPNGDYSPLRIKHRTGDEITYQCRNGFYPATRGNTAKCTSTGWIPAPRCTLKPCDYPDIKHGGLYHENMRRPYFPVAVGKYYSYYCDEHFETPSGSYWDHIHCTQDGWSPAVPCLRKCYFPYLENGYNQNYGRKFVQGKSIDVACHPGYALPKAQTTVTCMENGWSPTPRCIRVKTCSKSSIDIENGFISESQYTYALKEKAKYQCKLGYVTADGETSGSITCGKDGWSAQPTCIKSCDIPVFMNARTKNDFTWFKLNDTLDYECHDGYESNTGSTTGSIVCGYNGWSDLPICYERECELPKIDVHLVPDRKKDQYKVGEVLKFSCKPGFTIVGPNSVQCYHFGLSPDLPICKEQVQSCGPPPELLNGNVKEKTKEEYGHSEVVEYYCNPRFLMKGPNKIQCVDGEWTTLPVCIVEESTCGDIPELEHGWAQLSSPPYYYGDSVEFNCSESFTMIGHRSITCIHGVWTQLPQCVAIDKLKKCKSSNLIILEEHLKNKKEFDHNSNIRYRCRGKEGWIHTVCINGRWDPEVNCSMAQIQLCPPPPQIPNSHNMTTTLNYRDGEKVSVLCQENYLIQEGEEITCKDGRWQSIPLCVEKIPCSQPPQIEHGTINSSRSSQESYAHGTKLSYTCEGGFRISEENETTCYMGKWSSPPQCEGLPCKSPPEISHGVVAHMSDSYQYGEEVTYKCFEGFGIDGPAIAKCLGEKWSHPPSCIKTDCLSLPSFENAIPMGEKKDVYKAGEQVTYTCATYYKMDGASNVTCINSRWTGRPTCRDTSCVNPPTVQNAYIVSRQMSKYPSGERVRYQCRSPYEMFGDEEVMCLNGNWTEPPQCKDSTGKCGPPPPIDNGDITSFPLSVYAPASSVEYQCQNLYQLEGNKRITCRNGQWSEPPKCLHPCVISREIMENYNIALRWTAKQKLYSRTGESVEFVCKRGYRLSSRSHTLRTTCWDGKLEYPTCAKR

Kd: ≤ 1 nM | stoichiometry (BSP:Factor H): 1 molar ratio
B1: human bone sialoprotein (BSP) (ligand)
chain: FSMKNLHRRVKIEDSEENGVFKYRPRYYLYKHAYFYPHLKRFPVQGSSDSSEENGDDSSEEEEEEEETSNEGENNEESNEDEDSEAENTTLSATTLGYGEDATPGTGYTGLAAIQLPKKAGDITNKATKEKESDEEEEEEEEGNENEESEAEVDENEQGINGTSTNSTEAENGNGSSGGDNGEEGEEESVTGANAEGTTETGGQGKGTSKTTTSPNGGFEPTTPPQVYRTTSPPFGKTTTVEYEGEYEYTGVNEYDNGYEIYESENGEPRGDNYRAYEDEYSYFKGQGYDGYDGQNYYHHQ
modifications: glycosylated, phosphorylated and tyrosine-sulfated glycoprotein (sites not given)
notes: Natural BSP of human serum is entered under the same molecule; also called rBSP; recombinant BSP
